Test results: US20210292386A1
Read-outs that look alike come from different tables or passages of the source.

Experiments:
Assay in all cases: cell-based or functional assay
[1] = biological target: T1, high-affinity IL2 receptor (IL2Rαβγ) of the mouse T cell line CTLL-2 (mouse) (UniProt P01590)
T1 sequence (looked up) 1: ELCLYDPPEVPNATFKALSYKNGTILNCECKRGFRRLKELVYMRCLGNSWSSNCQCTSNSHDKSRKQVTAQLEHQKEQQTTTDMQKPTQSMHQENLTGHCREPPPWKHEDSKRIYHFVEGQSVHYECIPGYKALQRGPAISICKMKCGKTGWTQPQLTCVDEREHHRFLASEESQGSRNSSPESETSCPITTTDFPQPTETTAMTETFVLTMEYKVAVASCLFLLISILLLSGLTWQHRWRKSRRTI
T1 sequence (looked up) 2: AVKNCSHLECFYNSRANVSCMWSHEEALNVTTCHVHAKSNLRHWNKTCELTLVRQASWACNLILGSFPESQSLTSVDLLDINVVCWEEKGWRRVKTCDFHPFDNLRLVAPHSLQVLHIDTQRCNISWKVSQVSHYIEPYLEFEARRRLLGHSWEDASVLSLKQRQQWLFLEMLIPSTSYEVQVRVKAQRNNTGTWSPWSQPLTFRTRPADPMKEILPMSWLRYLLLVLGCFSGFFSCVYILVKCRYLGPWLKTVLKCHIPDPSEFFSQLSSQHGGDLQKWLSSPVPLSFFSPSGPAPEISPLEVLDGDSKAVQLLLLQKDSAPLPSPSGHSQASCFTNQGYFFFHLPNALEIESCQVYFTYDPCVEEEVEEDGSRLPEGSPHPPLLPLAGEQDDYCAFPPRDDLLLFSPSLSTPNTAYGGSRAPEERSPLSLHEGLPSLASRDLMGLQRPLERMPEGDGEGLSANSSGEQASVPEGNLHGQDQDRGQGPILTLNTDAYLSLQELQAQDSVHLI
T1 sequence (looked up) 3: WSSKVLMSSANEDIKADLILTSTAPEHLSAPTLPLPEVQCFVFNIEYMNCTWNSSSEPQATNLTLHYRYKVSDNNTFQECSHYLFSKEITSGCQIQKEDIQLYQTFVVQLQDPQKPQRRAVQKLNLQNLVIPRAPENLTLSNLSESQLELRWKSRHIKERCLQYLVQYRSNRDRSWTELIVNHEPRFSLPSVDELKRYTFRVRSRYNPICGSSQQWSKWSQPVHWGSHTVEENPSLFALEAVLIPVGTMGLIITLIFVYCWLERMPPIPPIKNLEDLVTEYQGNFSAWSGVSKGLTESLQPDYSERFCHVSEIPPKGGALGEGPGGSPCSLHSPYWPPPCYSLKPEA

[2] = biological target: high-affinity IL2 receptor (IL2Rαβγ), human, on CD4+CD25+FoxP3+ regulatory T cells (human) (UniProt P01589); set-up: unit not given beside the values
[3] = biological target: intermediate-affinity IL2 receptor (IL2Rβγ), human (human) (UniProt P14784); set-up: unit not given beside the values
[4] = biological target: T1, high-affinity IL2 receptor (IL2Rαβγ) of the mouse T cell line CTLL-2 (mouse); remark: listed apart in the source
[5] = biological target: intermediate-affinity IL2 receptor (IL2Rβγ), human (human) (UniProt P14784)

Sequence of UniProt P14784 (P14784 27-551, chain 1 of 2): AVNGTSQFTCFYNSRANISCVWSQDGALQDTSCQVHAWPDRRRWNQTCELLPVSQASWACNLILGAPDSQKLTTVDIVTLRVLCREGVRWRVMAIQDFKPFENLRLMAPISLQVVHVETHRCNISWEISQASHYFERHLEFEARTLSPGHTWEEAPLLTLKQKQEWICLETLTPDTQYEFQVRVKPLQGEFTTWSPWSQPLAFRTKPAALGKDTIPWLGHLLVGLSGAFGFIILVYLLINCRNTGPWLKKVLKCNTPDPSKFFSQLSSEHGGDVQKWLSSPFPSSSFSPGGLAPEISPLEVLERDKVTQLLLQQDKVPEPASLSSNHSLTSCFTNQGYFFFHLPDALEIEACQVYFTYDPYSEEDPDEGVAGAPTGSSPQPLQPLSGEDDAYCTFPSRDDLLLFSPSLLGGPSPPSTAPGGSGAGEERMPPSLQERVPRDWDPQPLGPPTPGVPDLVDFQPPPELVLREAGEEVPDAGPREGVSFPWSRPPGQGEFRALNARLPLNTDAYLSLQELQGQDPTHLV
Sequence of UniProt P14784 (P31785 23-369, chain 2 of 2, further chain): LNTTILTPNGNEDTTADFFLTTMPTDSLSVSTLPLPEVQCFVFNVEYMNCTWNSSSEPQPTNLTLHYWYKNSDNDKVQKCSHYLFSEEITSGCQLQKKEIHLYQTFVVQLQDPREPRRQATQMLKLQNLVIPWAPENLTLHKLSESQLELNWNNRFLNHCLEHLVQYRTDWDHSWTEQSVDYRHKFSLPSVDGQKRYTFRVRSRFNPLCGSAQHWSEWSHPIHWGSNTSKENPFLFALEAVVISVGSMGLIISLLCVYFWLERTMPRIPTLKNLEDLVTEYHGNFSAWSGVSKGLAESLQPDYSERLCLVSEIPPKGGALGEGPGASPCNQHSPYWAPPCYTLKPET
Sequence of UniProt P01589 (P01589 22-272, chain 1 of 3): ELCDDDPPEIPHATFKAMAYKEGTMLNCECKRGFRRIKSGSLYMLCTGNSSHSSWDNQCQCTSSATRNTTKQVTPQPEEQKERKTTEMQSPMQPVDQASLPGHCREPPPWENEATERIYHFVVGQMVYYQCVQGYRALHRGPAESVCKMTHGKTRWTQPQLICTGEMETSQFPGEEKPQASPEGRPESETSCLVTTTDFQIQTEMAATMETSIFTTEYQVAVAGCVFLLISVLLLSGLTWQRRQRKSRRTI
Sequence of UniProt P01589 (P14784 27-551, chain 2 of 3, further chain): as the sequence (P14784 27-551, chain 1 of 2) above
Sequence of UniProt P01589 (P31785 23-369, chain 3 of 3, further chain): as the sequence (P31785 23-369, chain 2 of 2, further chain) above

EC50 of CTLL-2 proliferation (%-supernatant) [1]: 0.115
EC50 of STAT5 phosphorylation, CD4+CD25+FoxP3+ Treg (%-supernatant) [2]: 0.111
EC50 of STAT5 phosphorylation, CD4+CD25- T helper cells (%-supernatant) [3]: 4.36
EC50 of CTLL-2 proliferation (%-supernatant) [4]: 0.214
EC50 of TF-1 IL2Rβγ proliferation (%-supernatant) [5]: 2.35
Substance: hAlb-hIL2 (ligand)
EC50 of STAT5 phosphorylation, CD8+ cytotoxic T cells (%-supernatant) [3]: 6.84
